Test results reported in the nanobody polyreactivity screen of Harvey et al. (2022).

Test: yeast display, Sf9 membrane polyspecificity reagent, FACS + sequencing; frameworks hold sequencing errors
Outline: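 In a synthetic yeast display library (Saccharomyces cerevisiae BJ5465), nanobody expression was induced with galactose for 36–48 hours. FACS gates were set low and high (top ~1%) using anti-HA fluorescence for expression and streptavidin fluorescence for binding of the Sf9 membrane reagent. Each polyreactivity label is drawn from the gate of origin.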

Sequence | polyreactivity (PSR sort gate)
QVQLVESGGGLVQAGGSLRLSCAASGRTFGIYTMGWYRQAPGKERELVASTYYADSVKGRFTISRDNAKNTVYLQMNSLKPEDTAVYYCNVERLKKSQEWYGYPNDYWGQGTQVTVSS | low polyreactivity
QVQLVESGGGLVQAGGSLRLSCAASGRTFGKYAMAWYRQAPGKERELVAAITTRVVITYYADSVKGRFTISRDNAKNTVYLQMNSLKPEDTAVYYCAADPEKIYRPVNHYYYWGQGTQVTVSS | low polyreactivity
QVQLVESGGGLVQAGGSLRLSCAASGRTFGKYAMGWYIQAPGKEREFVAAISRSGGNTYYADSVKGRFTISRDNAKNTVYLQMNSLKPEDTAVYYCARGLSTYVLSHGLEYRTYYYWGQGTQVTVTS | high polyreactivity
QVQLVESGGGLVQAGGSLRLSCAASGRTFGKYAMGWYRQAPGKERELVARISRRGGTTYYADSVKGRFTISRDNAKNTVYLQMNSLKPEDTAVYYCAAGGTYGAVEEAHDSWGHGTQVTVSS | high polyreactivity
QVQLVESGGGLVQAGGSLRLSCAASGRTFGKYTMGWYRQAPGKQRELFAAINRRGGSTYYADSVKGRFTISRDNANNTVYLQMNSLKPEDTAVYYCSTDGYSIDRYYWGQGTQVTESS | high polyreactivity
QVQLVESGGGLVQAGGSLRLSCAASGRTFGLNAMGWYIQAPGKERELVAAISGSGGRTYYADSVKGRFTISRDNAKNTVYLQMNSLKPEDTAVYYCARVPSGQLEYDYWGQGTQVTVSS | high polyreactivity
QVQLVESGGGLVQAGGSLRLSCAASGRTFGLNAMGWYRQAPGKEMELVAAITSGGSTYYADSVKGRFTISRDNAKNTVYLQMNSLKPEDTAVYYCAVTYNGDSSWPGDYWGQGTQVTVSS | low polyreactivity
QVQLVESGGGLVQAGGSLRLSCAASGRTFGLNAMGWYRQAPGKERELVAAITSGGSTYYADSVKGRFTISRDNAKNTVYLQMNSLKPEDTAVYYCAARYWRSYGISDILSDVDYWGQGTQVTVSS | low polyreactivity
QVQLVESGGGLVQAGGSLRLSCAASGRTFGLNVMGWYRQAPGKERELVAAISRSGGSTYYADSVKGRFTISRDNAKNTVYLQMNSLKPEDTAVYYCAAVSRYYPYGYWGQGTQVTVSS | high polyreactivity
QVQLVESGGGLVQAGGSLRLSCAASGRTFGLYAMGWYRQAPGKERELVAAISYSGGRTYYADSVKGRFTISRDNAKKTVYLQRNSLKPEDTAVYYCNKAWFPYYYYRFDYWGQGTQVTVSS | high polyreactivity
QVQLVESGGGLVQAGGSLRLSCAASGRTFGLYAMGWYRQAPGKERELVASNTYSGGRTNYADSVKGRFTISRDNAKNTVYLQMNSLKPEDTAVYYCAASLWDDDSRLMYYWGQGTQVTVSS | high polyreactivity
QVQLVESGGGLVQAGGSLRLSCAASGRTFGLYTKAWYIQAPGKERELVAAISSGGITYYADSVKGRFTISRDNAKNTVYLQMNSLKPEDTAVYYCAADFRTTRRYNYRYNYWGQGTQVTVSS | high polyreactivity
QVQLVESGGGLVQAGGSLRLSCAASGRTFGNYAMGWSRQAPGKERELVAAITFRGGSTYYADSVKGRFTISRDNAKNTVYLQMNSLKPEDTAVYYCNAERYVGHTYFQFDYWGQGTQVTVSS | high polyreactivity
QVQLVESGGGLVQAGGSLRLSCAASGRTFGNYAMGWYRQAPGKERELVASITYTVGNTYYADSVKGRFTISRDNAKNTVYLQMNSLKPEDTAVYYCAADGFYLQFYHYDYWGQGTQVTVSS | low polyreactivity
QVQLVESGGGLVQAGGSLRLSCAASGRTFGPNAMGWYRQAPGKEMELVATITYIGGSTYYADSVKGRFTISRDNAKNTVYLQMNSLKPEDTAVYYCAKRGGSYKEGDSWGQGTQVTVSS | low polyreactivity
QVQLVESGGGLVQAGGSLRLSCAASGRTFGPYALGWYRQAPGKERELVATSSSNGASTYYADSVKGRFTISRDNAKNTVYLQMNSLKPEDTAVYYCAAEFHFWGYLYDYWGQGTQVTVSS | low polyreactivity
QVQLVESGGGLVQAGGSLRLSCAASGRTFGPYAMGWYRQAPGKEREFVAAISYSGGSTYYADSVKGRFTISRDNAKNTVYLQMNSLKPEDTAVYYCAAETYYGRIYWYIRDYWGQGTQVTVSS | low polyreactivity
QVQLVESGGGLVQAGGSLRLSCAASGRTFGPYAMGWYRQAPGKERELVAAISSSEGSTYYADSVKGRFTISRDNAKNTVYLQMNSLKPEDTAVYYCNARYYLWSTTRWYGYDYWGQGTQVTVSS | high polyreactivity
QVQLVESGGGLVQAGGSLRLSCAASGRTFGPYAMGWYRQAPGKERELVATISSNGASTYYADSVKGRFTISRDNAKNTVYLQMNSLKPEDTAVYYCAAEFHFWGYLYDYWGQGTQVTVSS | low polyreactivity
QVQLVESGGGLVQAGGSLRLSCAASGRTFGPYTMGWYRQAPGKEREFVAAINSSGSRTYYADSVKGRFTISRDNAKNTVYLQMNSLKPEDTAVYYCAAEAKWYYSWSYPYEGDYWGQGSQVTVSS | low polyreactivity
QVQLVESGGGLVQAGGSLRLSCAASGRTFGQNAMGWYRQAPGKERELVAAISASGSNTYYADSVKGRFTISRDHAKNTVYLQMNSLKPEDTAVYYCAKQVYRPGQQSRYDYWGQGTQVTVSS | low polyreactivity
QVQLVESGGGLVQAGGSLRLSCAASGRTFGQYAMGWYRQAPGKERELVAAISWGGGRTYYADSVKGRFTISRDNAKNTVYLQMNSLKPEDTAVYYCNAVYSPRYYVGGYDYWGQGTQVTVSS | high polyreactivity

Sequence | polyreactivity (PSR sort gate)
QVQLVESGGGLVQAGGSLRLSCAASGRTFGRNALGWYRQAPGKEREFVAAISRRGDTTYYADSVKGRFTISRDNAKNTVYLQMNSLKPEDTAVYYCNADVIKDRFYWYYYWGQGTQVTVSS | low polyreactivity
QVQLVESGGGLVQAGGSLRLSCAASGRTFGRNAMGWYRQAPGKEMELVAAISWTGGNTYYADSVKGRFTISRDNAKNTVYLQMNSLKPEDTAVYYCAARGRYVTPQPSYDYWGQGTQVTVSS | high polyreactivity
QVQLVESGGGLVQAGGSLRLSCAASGRTFGRNAMGWYRQAPRKERELVAAISDRGVSTYYADSVKGRFTISRDNAKNTVYLQMNSLKPEDTAVYYCAAVFWVDILPGDYWGQGTQVTVSS | low polyreactivity
QVQLVESGGGLVQAGGSLRLSCAASGRTFGRYAMGWSRQAPGKERELVAAINRGGSTKYADSVKGRFTISRDNAKNTVYLQMNSLKPEDTAVYYCAKDRHPAVHYDYWGQGTQVTVSS | low polyreactivity
QVQLVESGGGLVQAGGSLRLSCAASGRTFGRYAMGWYRQAPGKEREFVASISRRGGSTNYADSVKGRFTISRDNAKNTVYLQMNSLKPEDTAVYYCAKRFTLPLSEYDYWGQGTQVTVSS | high polyreactivity
QVQLVESGGGLVQAGGSLRLSCAASGRTFGRYAMGWYRQAPGKERELVAAISIRGGRTTYADSVKGRFTISRDNAKNTVYLQMNSLKPEDTAVSYCAKVISVRGGYGYWGQGTQVTVSS | high polyreactivity
QVQLVESGGGLVQAGGSLRLSCAASGRTFGRYAMGWYRQAPGKERELVAAITRGGSTNYADSVKGRFTISRDNAKNTVYLQMNSLKPEDTAVYYCAKSVRYRYDYWGQGTQVTVSS | high polyreactivity
QVQLVESGGGLVQAGGSLRLSCAASGRTFGRYAMGWYRQAPGKERELVATISVSSGSTYYADSVKGRFTISRDTAKNTVYLQMNSLKPEDTAVYYCNAVYGRQYRGYNYKYYYWGQGTQVTVSS | high polyreactivity
QVQLVESGGGLVQAGGSLRLSCAASGRTFGRYAMGWYRQAPGKERELVATITSGGSTNYADSVKGRFTITRDNAKNTVYLQMNSLKPEDTAVYYCAAEFSPSRWAYSEGALRYNYWGQGTQVTVSS | low polyreactivity
QVQLVESGGGLVQAGGSLRLSCAASGRTFGRYAMGWYRQAPWKERELVAVINGGGSTYYADSVKGRFTISRDNAKNTVYLQMNSLKPEDTAVDYCAVGGYTRTGGWFDYWGQGTQVTVSS | high polyreactivity
QVQLVESGGGLVQAGGSLRLSCAASGRTFGRYAMGWYRQATGKERELVAAISTGGRTYYADSVKGRFTISRDNAKNTVYLQMNSLKPEDTEVYYCNRVVVVGILEMGYWGQGTQVTVSS | low polyreactivity
QVQLVESGGGLVQAGGSLRLSCAASGRTFGRYARGWYRQAPGKETELVAAIRSGASTYYADSVKGRFTISRDNAKNTVYLQKNSLKPEDTAVYYCAVDTLQGARVTSPSGDYDYWGQGTQVTVSS | low polyreactivity
QVQLVESGGGLVQAGGSLRLSCAASGRTFGRYVMGWYRQAPGKERELVAAITSSSSSTYADSVKGRFTISRDNAKNTVHLEMNSLKPEDTAVYYCNKRFPSRHRPEYDYWGQGTQVTVSS | high polyreactivity
QVQLVESGGGLVQAGGSLRLSCAASGRTFGSNAMGWYRQAPGKERELVAAISFSGGSTYYADSVKGRFTISRDNAKNTVYLQMNSLKPEDTAVYYCAAEYPQKGDRGSRRRIDGYWGQGTQVTVSS | high polyreactivity
QVQLVESGGGLVQAGGSLRLSCAASGRTFGSNAMGWYRQAPGKERELVAAISLRGGRTYYADSVKGRFTISRDNAKNTVYLQMNSLKPEDTAVYYCNAVHYLYGARSRLTYDYWGQGTQVTVSS | high polyreactivity
QVQLVESGGGLVQAGGSLRLSCAASGRTFGSNAMGWYRQAPGKERELVAVISRRAGSTYADSVKGRFTISRDNAKNTVYLQMNSLKPEDTAVYYCATRWLYHQYYYWGQGTQVTVSS | high polyreactivity
QVQLVESGGGLVQAGGSLRLSCAASGRTFGSYAMGWNRQAPGKERELVAAISSSGGRTYYADSVKGRFTISRDNAKNTVYLQMNSLKPEDTGVYYCNADVQWNIWEYDYWGQGTQVTVSS | high polyreactivity
QVQLVESGGGLVQAGGSLRLSCAASGRTFGSYAMGWYRQAPGKEREFVASITGATTNYADSVKGRFTISRDNAKNTVYLQMNSLKQEDTAVYYCATDVGFGRKQRPHRPGYGYWGQGTQVTVSS | low polyreactivity
QVQLVESGGGLVQAGGSLRLSCAASGRTFGSYAMGWYRQAPGKERELVAAINWSGSSTYYADSVKGRFTISRDNAKNTVYLQMNSLKPEDTAVYYCAATPSFYRSYQGMDYWGQGTQVTVSS | high polyreactivity
QVQLVESGGGLVQAGGSLRLSCAASGRTFGSYAMGWYRQAPGKERELVAAISSGGRTYYADSVKGRFTISRDNAKNTVYLQMNSLKPEDTAVYYCAARLISYKTPGGYNYWGQGTQVTVSS | high polyreactivity
QVQLVESGGGLVQAGGSLRLSCAASGRTFGSYAMGWYRQAPGKERELVAAISVSGDSTFYADSVKGRFTISRDNAKNTVYLQMNSLKQEDTAVYYCAARDYVEFWGQGTQVTVSS | low polyreactivity
